Earlier results, collected in paper PMC3971948.

Target: Asp85 (UniProt position 98, WAQYADWLFTT)
Settings: Initial unphotolysed BR state of the R82Q mutant

Q: With “Bacteriorhodopsin R82Q (Halobacterium salinarum; R82Q)” as the substance, how does the pKa read?
A: The pKa was “up to ∼7”.
